Laboratory results taken from PMC2279226.

Assays:
[1] = target: H3 (K9, 14, 18, 23) tetra-acetylated nucleosome (Xenopus laevis)
[2] = target: H3 (K9, 14, 18, 23) tetra-acetylated nucleosome (Xenopus laevis); remark: listed apart in the source

## RSC complex (from UniProt Q02206 1-625)
[1]
  initial rate of nucleosome repositioning by RSC relative to the unmodified S28C control (competitive sliding assay, 54A18 DNA, 30 °C, 1 mM ATP): 16 fold
[2]
  Km for nucleosomes of ATP hydrolysis by RSC (real-time MDCC-PBP ATPase assay, 0.3 nM RSC, 36W36 nucleosomes), against the unmodified control: 3 fold lower
